The values that follow come from publication doi:10.1101/2024.06.06.597810 (bioRxiv, 2024).

Where a chain is given by its changes, count along the chain named. Numbers in names are those of the source.

The target of this assay is T1, Biotin-labeled BatCoV-BtkY72 stem helix peptide (Bat SARS-related coronavirus BtKY72 …, UniProt A0A3Q8AKM0, biotin (position not given)).
T1 construct: source: synthetic peptide, bought: GenScript
The assay can be described thus: BLI. The conditions noted are these: both partners purified.

B1: S2P6 UCA VH M48I/S56H double mutant Fab (Fab, V domains shown)
VH: QVQLVQSGAEVKKPGASVKVSCKASGYTFTSYYMHWVRQAPGQGLEWIGIINPSGGHTSYAQKFQGRVTMTRDTSTSTVYMELSSLRSEDTAVYYCARGSPKGAFDYWGQGTLVTVSS
VL: not shown
notes: source: Expi293F, co-transfected, purified (IgG-CH1-XL beads)
As for B1, the binding result is reported as “binds”.

B2: S2P6 UCA VH Y32Q/M48I/S56H triple mutant Fab (Fab, V domains shown)
VH: B1 VH with Y32Q
VL: not shown
notes: as for B1
For B2, the binding result was “binds”.
